Data on two molecules can be found in publication PMC5397183.

Read-outs that look alike come from different tables or passages of the source.

For data set [1], the target named is Bacillus halodurans FadR (native) (Bacillus halodurans). The data set is described as follows: crystal structure.
Data set [2] shares this target. Put plainly: crystal structure. The source holds these as a separate data set.
Data set [3] concerns the target T1, FadR WT (native, crystal) (Bacillus halodurans, UniProt Q9K8A4 1-195).
T1 sequence: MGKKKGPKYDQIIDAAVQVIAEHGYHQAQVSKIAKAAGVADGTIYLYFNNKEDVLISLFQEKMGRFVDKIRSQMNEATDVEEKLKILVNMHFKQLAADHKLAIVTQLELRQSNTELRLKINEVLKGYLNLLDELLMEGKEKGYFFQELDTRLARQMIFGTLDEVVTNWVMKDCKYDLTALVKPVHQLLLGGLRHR
Put plainly: X-ray crystallography.

The term stoichiometry N denotes a count of units in the complex or per binding partner. Regarding “Bacillus halodurans FadR (native) (natural protein)”, the stoichiometry N in data set [1] and in data set [2] was 2 each time.

B1: 21OH fadR promoter (dsDNA)
DNA 1: GATGAATGAATACTCATTCAT
DNA 2: CATGAATGAGTATTCATTCAT
For B1, the binding result in data set [3] is given as “binds”.
